# Assay results: PMC12548284, “SIK2-mediated phosphorylation of GABARAPL2 facilitates autophagosome–lysosome fusion and rescues neurodegeneration in an Alzheimer’s disease model” (Translational Neurodegeneration, 2025)
# B1: LC3-interacting region (LIR) 326–333 (FAAIYFLL) peptide (peptide)
# peptide: FAAIYFLL
# notes: SIK2 residues 326-333, the canonical LIR motif within 290-550; also called LIR peptide; source: synthetic peptide; bought: Sangon Biotech
# Target: T1, GST-GABARAPL2 (UniProt P60520 1-117)
# T1 construct: GABARAPL2 of the bought GST fusion protein; source: bought: Proteintech (Ag1155)
# Assay: pull-down; competitive GST pull-down: GST-GABARAPL2 on glutathione-conjugated Sepharose beads, SIK2 protein in solution, LIR peptide at 0, 5, 10, 20, 40 μmol/L; immunoblot
# Conditions: both partners purified
# T1 sequence (P60520 whole entry, the tested form may be a part): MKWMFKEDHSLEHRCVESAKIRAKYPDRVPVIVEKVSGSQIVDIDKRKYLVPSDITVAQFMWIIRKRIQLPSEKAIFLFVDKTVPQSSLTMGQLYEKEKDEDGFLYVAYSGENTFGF
binder,measurement,value
B1,binding result,binds
